In publication PMC3097263:

Target: T1, MqsA N97A/R101A N97A;R101A (Escherichia coli K-12?) (UniProt Q46864)
T1 sequence: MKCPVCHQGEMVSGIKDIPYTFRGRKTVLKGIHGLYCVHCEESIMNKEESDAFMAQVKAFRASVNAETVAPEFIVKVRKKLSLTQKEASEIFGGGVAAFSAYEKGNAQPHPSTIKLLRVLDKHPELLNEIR
Test: EMSA
Conditions: 20 min at room temperature, binding buffer

Sequence: TGAACGTTGGTCAGACCTTGCAGGTGGGTAATGCTTCCGGTACGCCAATCACTGGCGGAAATGCCATTACCCAGGCCGACGCAGCAGAGCAAGGAGTTGTGATCAAGCCTGCACAAAATTCCACCGTTGCTGTTGCGTCGCAACCGACAATTACGTATTCTGAGTCTTCGGGTGAACAGAGTGCT (double strand) [PrpoS (Suppl. Fig. 3b probe)]
- binding: no binding
